The results in this text go back to paper PMC8065039.

One experiment addresses FcγRIIA R167 (human) (UniProt P12318). The experiment is described as follows: SPR. Background: SPR reads the build-up and loss of mass on a sensor chip optically.
The target in another experiment is FcγRIIB/C (human) (UniProt P31994). Briefly: SPR.
For experiment [1], the target named is Gama Fc Receptor 1 (CD64) (human) (UniProt P12314). Briefly: SPR.
The target of the next experiment is C1q (human) (UniProt P02745). The experiment is described as follows: ELISA; C1q binding ELISA: plates coated with 5 ug/mL CA521 subtypes or OPDIVO (IgG4), fourfold serial dilutions starting at 40 ug/mL, 2 h at 37 C, C1q detected by HRP anti-human C1q; x axis of the figure: antibody concentration (nM); duplicate. Background: In an ELISA, binding on a coated surface is turned into a signal by an enzyme label.
Chain of C1q (human) (P02745 23-245, chain 1 of 3): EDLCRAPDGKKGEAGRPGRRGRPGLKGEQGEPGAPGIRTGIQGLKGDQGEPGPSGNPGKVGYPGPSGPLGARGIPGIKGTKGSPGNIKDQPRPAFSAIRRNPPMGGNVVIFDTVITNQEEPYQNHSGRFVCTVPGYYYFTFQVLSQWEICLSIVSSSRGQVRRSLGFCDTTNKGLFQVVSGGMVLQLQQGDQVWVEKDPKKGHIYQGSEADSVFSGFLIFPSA
Chain of C1q (human) (P02746 28-253, chain 2 of 3, further chain): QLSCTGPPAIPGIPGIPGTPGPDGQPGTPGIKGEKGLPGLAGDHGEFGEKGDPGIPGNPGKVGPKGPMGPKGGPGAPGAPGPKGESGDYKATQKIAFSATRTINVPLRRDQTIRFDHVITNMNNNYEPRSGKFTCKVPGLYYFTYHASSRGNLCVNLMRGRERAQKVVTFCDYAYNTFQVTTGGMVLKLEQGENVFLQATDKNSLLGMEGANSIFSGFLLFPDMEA
Chain of C1q (human) (P02747 29-245, chain 3 of 3, further chain): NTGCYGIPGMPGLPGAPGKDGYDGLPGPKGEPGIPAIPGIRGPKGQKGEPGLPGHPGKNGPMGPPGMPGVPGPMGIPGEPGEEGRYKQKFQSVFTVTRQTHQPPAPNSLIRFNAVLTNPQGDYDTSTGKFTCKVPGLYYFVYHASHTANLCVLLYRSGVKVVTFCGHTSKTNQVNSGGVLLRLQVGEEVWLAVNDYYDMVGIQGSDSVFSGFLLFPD

Chain of Gama Fc Receptor 1 (CD64) (human) (P12314 16-374): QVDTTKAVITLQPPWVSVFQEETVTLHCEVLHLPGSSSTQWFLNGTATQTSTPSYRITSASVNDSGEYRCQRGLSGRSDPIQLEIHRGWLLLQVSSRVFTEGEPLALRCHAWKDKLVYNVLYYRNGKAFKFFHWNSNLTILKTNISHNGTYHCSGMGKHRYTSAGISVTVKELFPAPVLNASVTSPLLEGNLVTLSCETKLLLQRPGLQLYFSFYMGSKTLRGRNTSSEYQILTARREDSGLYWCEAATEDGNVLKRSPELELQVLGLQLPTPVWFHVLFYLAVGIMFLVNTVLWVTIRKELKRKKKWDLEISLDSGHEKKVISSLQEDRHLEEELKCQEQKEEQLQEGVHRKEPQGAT
Chain of FcγRIIA R167 (human) (P12318 34-217 H167R): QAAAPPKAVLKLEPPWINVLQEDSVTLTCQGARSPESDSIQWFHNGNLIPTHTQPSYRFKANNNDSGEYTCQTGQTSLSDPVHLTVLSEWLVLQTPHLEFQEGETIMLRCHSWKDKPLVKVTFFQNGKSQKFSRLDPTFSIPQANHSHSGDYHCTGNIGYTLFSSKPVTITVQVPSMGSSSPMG
Chain of FcγRIIB/C (human) (P31994 43-217): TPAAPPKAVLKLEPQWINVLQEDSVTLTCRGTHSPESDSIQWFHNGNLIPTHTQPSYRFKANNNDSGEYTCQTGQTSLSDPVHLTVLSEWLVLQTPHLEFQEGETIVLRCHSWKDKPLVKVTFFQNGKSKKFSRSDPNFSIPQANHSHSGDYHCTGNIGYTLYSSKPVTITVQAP

By Kd is commonly meant the concentration at which binding is half-saturated. A low value points to a tighter complex. CA521(IgG1) (from UniProt P01857): the Kd in the experiment with FcγRIIA R167 (human) came out at 5110 nM; in the experiment with FcγRIIB/C (human), 20400 nM; in experiment [1] it was 3.12 nM.
Usually IC50 stands for the concentration at which inhibition is half-maximal. Low readings indicate greater potency, high ones weaker potency. For the substance Opdivo (IgG4) (antibody), the concentration for half-maximal inhibition (IC50) with C1q (human) was 35.9 nM.
